From patent US20220145281A1, “NEW VACCINAL STRATEGY TO PREVENT OR TREAT RHUMATOID ARTHRITIS” (INSERM (Institut National de la Santé et de la Recherche …, priority 2019, published 2022)

Tests used:
[1] = system: 5 purified HLA-DR molecules; test: HLA-DR peptide-binding assay, panel of alleles and likelihood calculation per genotype; parameters: species or system human
HLA-DRB1*04:04 = HLA-DRB1*04:04 (Homo sapiens, UniProt P01903+P01911, A100R/A169T/F76Y/I96L/K127E/L162R/M171V/N62H/P40V/Q125Y/R42H/S133A/S149N/S66Y/V209L/W38E); test: HLA-DR peptide-binding assay (ELISA); conditions: positive binding = OD equal to the OD for the HA peptide
HLA-DRB1*07:01 = HLA-DRB1*07:01 (Homo sapiens, UniProt P01903+P01911, A100R/A102G/A103Q/D57E/D86V/E43K/F76Y/K127E/L162R/M171V/P40G/Q125H/Q99D/R33Q/R42Y/R54Q/S133A/S66F/T210M/V115G/Y107V/Y59L/Y89S); test: HLA-DR peptide-binding assay (ELISA); conditions: positive binding = OD equal to the OD for the HA peptide
HLA-DRB1*04:02 = HLA-DRB1*04:02 (Homo sapiens, UniProt P01903+P01911, A100E/A169T/F76Y/K127E/L162R/M171V/N62H/P40V/Q125Y/Q99D/R42H/S133A/S149N/S66Y/V209L/W38E); test: HLA-DR peptide-binding assay (ELISA); conditions: positive binding = OD equal to the OD for the HA peptide
HLA-DRB1*01:01 = target: T1, HLA-DRB1*01:01 (Homo sapiens, UniProt P01903+P01911, A100R/D57E/F55L/F60I/F76Y/I96L/L162R/M171V/P40L/Q125E/R42F/V115G/Y59C); test: HLA-DR peptide-binding assay (ELISA); conditions: positive binding = OD equal to the OD for the HA peptide
T1 construct: Purification of HLA-DRB1 molecules from lymphoblastoid cell lines; Total protein extracts were immunoprecipitated by anti-HLA-DR LB3.1 antibody; endogenous in cells; host or cells: JESTHOM lymphoblastoid cell line, HLA homozygous

[2] = system: Mononuclear cells (PBLs) from patients and controls; test: T cell proliferation assay (BRDU incorporation); assay type: cell-based, human; conditions: healthy controls, 11, 5 μg/ml peptide, 6 days
Description: T cell proliferation assay. Mononuclear cells from patients were isolated from 20 ml of heparinized blood by centrifugation through Ficoll-Histopaque (Sigma Aldrich, St. Quentin-Fallavier, France). Cells were cultured at a density of 10^6 cells/ml in RPMI 1640 with 10% self-serum in the presence of 1 μg/ml of human PAD4 or human fibrinogen or PHA (phytohemagglutinin) or 5 μg/ml of PAD4 peptide. After 6 days of culture at 37° C., proliferative response to proteins was evaluated using the colorimetric bromodeoxyuridine kit (Roche Diagnostics, Meylan, France). Positive T cell responses were defined by optical densities (OD) higher than twice the ODs for cells cultured without protein or peptide.

HLA-DRB1*04:01 = target: T2, HLA-DRB1*04:01 (Homo sapiens, UniProt P01903+P01911, A100K/A169T/F76Y/I96L/K127E/L162R/M171V/N62H/P40V/Q125Y/R42H/S133A/S149N/S66Y/V115G/V209L/W38E); test: HLA-DR peptide-binding assay (ELISA); conditions: positive binding = OD equal to the OD for the HA peptide
T2 construct: Purification of HLA-DRB1 molecules from lymphoblastoid cell lines; Total protein extracts were immunoprecipitated by anti-HLA-DR LB3.1 antibody; endogenous in cells; host or cells: SAVC lymphoblastoid cell line, HLA homozygous

[3] = target: T3, HLA-DR molecule HLA-DRB1*04:01, purified from lymphoblastoid cell line SAVC (human); test: ELISA: peptide coated on plate, purified HLA-DR added
T3 construct: Immunoprecipitated from detergent cell lysate with anti-HLA-DR LB3.1 and eluted at pH 2
Description: (§1) HLA-DR Peptide-binding assay. ELISA plates were coated with 10 μg of PAD4 or fibrinogen peptide/well and blocked in 1% bovine serum albumin (BSA). One microgram of purified HLA-DR molecule was added to plates. After washing, bound HLA-DR was detected by biotinylated anti HLA-DR antibody B8122 (Immunotech, Marseille, France), followed by peroxidase-conjugated avidin. Peroxidase-conjugated anti-mouse IgG and peroxidase-conjugated avidin were supplied by Sigma Aldrich (St. Quentin-Fallavier, France). Optical density was read at 405 nm. The binding of each of the purified HLA-DR alleles was assayed on ELISA plates coated with peptides from PAD4 or Fibrinogen (each in duplicate wells) and, as controls, 2 wells coated with a classical positive binder, influenza hemagglutinin (HA) peptide ([…]). Positive binding was defined as an OD value equal to the OD for the HA peptide.

CD4 T cells = test: Flow cytometry analysis of whole blood samples stimulated with PAD4; assay type: cell-based, human; conditions: 10 RA patients and 7 controls
Source text: One patient with RA (2.4%) and none of the patients with psoriatic arthritis or healthy controls had proliferative response to citrullinated fibrinogen. To confirm that the proliferative response observed in PBLs cultured with PAD4 was due to T cells, we ran flow cytometry analysis in an extra 10 RA patients and 7 controls.

[4] = target: T4, HLA-DR molecule HLA-DRB1*04:02, purified from lymphoblastoid cell line YAR (human); test: ELISA: peptide coated on plate, purified HLA-DR added
T4 construct: Immunoprecipitated from detergent cell lysate with anti-HLA-DR LB3.1 and eluted at pH 2
Description: as §1

[5] = target: T5, HLA-DR molecule HLA-DRB1*04:04, purified from lymphoblastoid cell line PEYSSON (human); test: as above
T5 construct: Immunoprecipitated from detergent cell lysate with anti-HLA-DR LB3.1 and eluted at pH 2
Description: as §1

[6] = target: T6, HLA-DR molecule HLA-DRB1*01:01, purified from lymphoblastoid cell line JESTHOM (human); test: as above
T6 construct: Immunoprecipitated from detergent cell lysate with anti-HLA-DR LB3.1 and eluted at pH 2
Description: as §1

[7] = target: T7, HLA-DR molecule HLA-DRB1*07:01, purified from lymphoblastoid cell line MOU (human); test: as above
T7 construct: Immunoprecipitated from detergent cell lysate with anti-HLA-DR LB3.1 and eluted at pH 2
Description: as §1

DPGVEVTLTMKAASGSTGDQ (Synthetic peptide p8) [peptide 8, 20-mer peptide from human PAD4]
binding to the five tested HLA-DRB1 alleles ([1]; HLA-DRB1*01:01, *04:01, *04:02, *04:04, *07:01): bound all five tested HLA-DRB1 alleles
binding to HLA-DRB1*04:04 (HLA-DRB1*04:04): binds
binding to HLA-DRB1*07:01 (HLA-DRB1*07:01): binds
binding to HLA-DRB1*04:02 (HLA-DRB1*04:02): binds
binding to HLA-DRB1*01:01 (HLA-DRB1*01:01): binds
subjects with T cell proliferative response to peptide (OD ratio higher than 2) [2]: 0/11 and no healthy control
subjects with T cell proliferative response to peptide (OD ratio higher than 2) ([2]; listed as Peptide 8): 0
binding to HLA-DRB1*04:01 (HLA-DRB1*04:01): binds

VRVFQATRGKLSSKCSVVLG (Synthetic Peptide 22) [20-mer peptide from human PAD4]
subjects with T cell proliferative response to peptide (OD ratio higher than 2) [2]: none of 11
binding to HLA-DRB1*04:01 (HLA-DRB1*04:01): bind HLA-DRB1*04:01 only

B1: peptide 22 from PAD4 (VRVFQATRGKLSSKCSVVLG) (peptide)
peptide: VRVFQATRGKLSSKCSVVLG
notes: Synthetic 20-mer, coated on the ELISA plate (10 ug/well); also called p22; peptide p22
binding result [3]: binds

B2: peptidyl arginine deiminase 4 (protein, listed as Homo sapiens)
chain: MAQGTLIRVTPEQPTHAVCVLGTLTQLDICSSAPEDCTSFSINASPGVVVDIAHSPPAKKKSTGSSTWPLDPGVEVTLTMKAASGSTGDQKVQISYYGPKTPPVKALLYLTAVEISLCADITRTGKVKPTRAVKDQRTWTWGPCGQGAILLVNCDRDNLESSAMDCEDDEVLDSEDLQDMSLMTLSTKTPKDFFTNHTLVLHVARSEMDKVRVFQATRGKLSSKCSVVLGPKWPSHYLMVPGGKHNMDFYVEALAFPDTDFPGLITLTISLLDTSNLELPEAVVFQDSVVFRVAPWIMTPNTQPPQEVYACSIFENEDFLKSVTTLAMKAKCKLTICPEEENMDDQWMQDEMEIGYIQAPHKTLPVVFDSPRNRGLKEFPIKRVMGPDFGYVTRGPQTGGISGLDSFGNLEVSPPVTVRGKEYPLGRILFGDSCYPSNDSRQMHQALQDFLSAQQVQAPVKLYSDWLSVGHVDEFLSFVPAPDRKGFRLLLASPRSCYKLFQEQQNEGHGEALLFEGIKKKKQQKIKNILSNKTLREHNSFVERCIDWNRELLKRELGLAESDIIDIPQLFKLKEFSKAEAFFPNMVNMLVLGKHLGIPKPFGPVINGRCCLEEKVCSLLEPLGLQCTFINDFFTYHIRHGEVHCGTNVRRKPFSFKWWNMVP
notes: Human PAD4 protein produced in baculovirus expression system
Likelihood to bind at least one peptide from ([1]; genotype DRB1*01:01/01:01): 0.061
Likelihood to bind at least one peptide from ([1]; genotype DRB1*01:01/04:01): 0.165
Likelihood to bind at least one peptide from ([1]; genotype DRB1*01:01/04:04): 0.120
Likelihood to bind at least one peptide from ([1]; genotype DRB1*01:01/07): 0.076
Likelihood to bind at least one peptide from ([1]; genotype DRB1*04:01/04:01): 0.258
Likelihood to bind at least one peptide from ([1]; genotype DRB1*04:01/04:04): 0.218
Likelihood to bind at least one peptide from ([1]; genotype DRB1*04:01/07): 0.178
Likelihood to bind at least one peptide from ([1]; genotype DRB1*04:02/07): 0.090
Likelihood to bind at least one peptide from ([1]; genotype DRB1*04:04/04:02): 0.134
Likelihood to bind at least one peptide from ([1]; genotype DRB1*04:04/04:04): 0.176
Likelihood to bind at least one peptide from ([1]; genotype DRB1*04:04/07): 0.134
Likelihood to bind at least one peptide from ([1]; genotype DRB1*07/07): 0.090
expression of CD154 (T cell early activation marker) on CD4 T cells (CD4 T cells): increased expression of CD154
production of TNF alpha by CD4 T cells (CD4 T cells): increased production of TNF alpha

B3: peptide 8 from PAD4 (DPGVEVTLTMKAASGSTGDQ) (peptide)
peptide: DPGVEVTLTMKAASGSTGDQ
notes: Synthetic 20-mer, coated on the ELISA plate (10 ug/well); also called p8; peptide p8
binding result [4]: binds
binding result [5]: binds
binding result [3]: binds
binding result [6]: binds
binding result [7]: binds
